Measured values as given in PMC6430810 (2019).

Legend:
[1] = target: T1, human 4EHP (residues 45-234) for ITC (human, UniProt O60573 45-234); assay: ITC
T1 chain: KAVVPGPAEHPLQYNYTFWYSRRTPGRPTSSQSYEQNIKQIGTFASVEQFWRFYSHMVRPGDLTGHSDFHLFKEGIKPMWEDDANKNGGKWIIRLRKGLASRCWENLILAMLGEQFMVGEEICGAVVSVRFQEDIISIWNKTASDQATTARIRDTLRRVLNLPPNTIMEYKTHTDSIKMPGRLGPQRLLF

[2] = target: T1, human 4EHP (residues 45-234) for ITC; assay: ITC; VP-ITC, 25 °C; TRS (1-74, 0.6 mM) in the syringe titrated against 4EHP (45-234, 0.035 mM); single binding site model

B1: human TRS UNE-T (residues 1-74) with C-terminal His tag (domain or fragment)
chain: MFEEKASSPSGKMGGEEKPIGAGEEKQKEGGKKKNKEGSGDGGRAELNPWPEYIYTRLEMYNILKAEHDSILAE
[1]
  Ka: 403000 M⁻¹
[2]
  Kd: 2.48 µM
  stoichiometry N: 1
